Reference: patent US10414821

What was measured:
[1] = target: PD-1 (UniProt Q15116); assay: ELISA
Target sequence in this assay (Q15116 25-170): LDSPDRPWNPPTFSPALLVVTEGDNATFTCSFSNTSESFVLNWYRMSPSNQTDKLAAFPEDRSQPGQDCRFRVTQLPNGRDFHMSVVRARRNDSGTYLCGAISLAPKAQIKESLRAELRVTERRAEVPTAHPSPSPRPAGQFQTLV

[2] = target: PD-1 (UniProt Q15116); assay: blocking ELISA (PD-1/PD-L1)
Target sequence in this assay (Q15116 25-167): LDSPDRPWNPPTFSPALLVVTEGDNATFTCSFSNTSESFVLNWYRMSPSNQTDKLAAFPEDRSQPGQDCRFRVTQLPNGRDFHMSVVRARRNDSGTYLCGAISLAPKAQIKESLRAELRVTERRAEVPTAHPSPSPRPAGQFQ

Substance: MK3475
- EC50 [1]: 0.08 nM

Substance: MK-3475
- IC50 [2]: 0.603 nM
